The values below come from the nanobody polyreactivity screen of Harvey et al. (2022).

The nature of this series: yeast display, Sf9 membrane polyspecificity reagent, FACS + sequencing; frameworks hold sequencing errors. In short, it runs like this: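 In a synthetic yeast display library (Saccharomyces cerevisiae BJ5465), nanobody expression was induced with galactose for 36–48 hours. FACS gates were set low and high (top ~1%) using anti-HA fluorescence for expression and streptavidin fluorescence for binding of the Sf9 membrane reagent. Each polyreactivity label is drawn from the gate of origin.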
Take “QVHLVESGVGLVQAGGTLRLSCAASGRTFRVYALVWYRQAPGKERELVAAITWNGGSTYYADSVKGRFTISRDNAKNNVYLQMNRLKPEDTAVYYSAAARYAYNIWSGAYDYWGQGTQVTVSS”: the “polyreactivity (PSR sort gate)” value is “high polyreactivity”.
“QVHLVESRGRLVQAGGSLRLSCAASGSIFEPNAMGWYRQAPGKEREFVAAISGSGGSTYYADSVKARFTISRDNAKNTVYLQMNSRNPEDTAVYYCATRGKRSYFRTFYYWGQATQVTVSS”: the “polyreactivity (PSR sort gate)” value is “high polyreactivity”.
To “QVHLVESVGGLFQAGGSLRLSCAPSGYIYVANVKGWYRQAPGKERELVAAINRRTGITYYADSVKGRCTNSRDNAKNTVNLQMNSLKTEDTAVYYCAALAQSTTYTRPYDYWGQGTQVTVSS” belongs “low polyreactivity”.
To “QVHLVESVGGLVQAGGSLRLSCAASGRIFRYYAMGWYRQAPVKAWELVATISQRGGTYYADSVKGRFTISRDNAKNTVYLQMNSLKPEDTAVYYCAARINTYRSYYPSSRSDYWGQGTQVTVSS” belongs “high polyreactivity”.
For “QVHLVESWGGLVQAGGSLRLICAASGSTFYANAMGWYRQAPGKERQLVAAITRSRRSTYYADSVKGRFTISRDNAKNTVYLQMNSLKRVDTAVYYFSARRVRDRVRYDYCGQGTQVTVSS” the value was “high polyreactivity”; for “QVHLVESWGGLVQAGGSLRLSCAASGSIFYYYAMGWYRLAPGKERELVAAITSGGSTYYADSVKGRFTISRDNAKNTVYLQMNSLKPEDTAVYYCAAVFYAAYLRYVWYSYDYWGQGTQVTVSS”, “low polyreactivity”; for “QVHLVETGGGLVHAGGSLRLSCASSGNIFSWYAMGWYRQAPGKEREFVAVIRGRGGSTYYADSVKGRFTISRDNAKNNVYLLMKSLKPEDTAVYYCAIRGFVLYFYRSGYGYGYWGQGTQVTVSS”, “low polyreactivity”.
As for “QVHLVETGGGLVQEGGSLRLSCAATGSNFGQNAMGWYRQAPGKERELVAAITRRGVATYYADSVKGRFTISRDNAKNTVYLQLISLKPEDTAVYYCAKRYHPNSPYDYWGQGTQVTVSS”, the “polyreactivity (PSR sort gate)” value is “low polyreactivity”.
For “QVHLVQSGGGLVQAGGSLRLSCAASGRTFYIYAMGCYRQAPGKERELVAAISWRGGSTYYANSVKGRFTISLDHAKYTVYLQMNSLKPEDTAVYYCAAEGAHVKWYRNWWEYDDWGQGTQVTVSS” the value was “high polyreactivity”.
As to “QVHLVVSGGGLVQAGGSLRLSCAASGRTFIRYAMGWYRQAPWKESELVAAITQSGGRTYYADSVKGRFTISRDNAKNTVYLQMNSLIPEDTAVYYCAAIGRYAFYYPRDYWGQGTQVTVSS”, the “polyreactivity (PSR sort gate)” value is “high polyreactivity”.
As to “QVKLQESGGGLVQAGGSLRLSCAASGNISVTGFMGLYRQAPGKERELVASIGIGGTTYYADSVKGRFSISRDNAKNTVYLQMNSLKPEDTAVYYCAGIYLYYAYSYWGQGTQVTVSS”, the “polyreactivity (PSR sort gate)” value is “low polyreactivity”.
As for “QVKLVDSGGGLVQAGGSLRLSCAASGSIFAGYAMGWYRQEPGKVRELVAAINASGGSTYYADSVKGRFTISRDNAKNTVYLQMNSLKPEDTAVYYCNRVYKRYYIGGYDYWGQGTQLTVSS”, the “polyreactivity (PSR sort gate)” value was “high polyreactivity”.
For “QVKLVESAGGLVQAGGSHRLSCAASARIFRGNTRGWYRQAPGKEREVVARITWNGGTTNYADSVKGRFTISRDYAKNTVSLQMNSLKPVDTAVYYCAKGSLRQITGILSWYYYWRQGTQVTVSS”, the “polyreactivity (PSR sort gate)” value is on record as “high polyreactivity”.
With “QVKLVESAGGLVQAGGSLRLSCPASGSTFPKYPMGWSRQEPGKERELVAAITWRGGSTYYADSVKGRFTISRDNAKNTVYLQMISLNPEDTAVYYCAAVPYYPSRMDYWGQGTQVTVSS”, the “polyreactivity (PSR sort gate)” value is recorded as “low polyreactivity”.
“QVKLVESGGCLVQAGGSLRLSCAASGRTIGYYGMGWYRQAPGKARELVAAITGSGGSTYYADSVKGRFTISRDNSKNTVYLQMNILIPEDTAVYYCAATYLSRWTLYDYWGQGTQVTVSS”: the “polyreactivity (PSR sort gate)” value was “high polyreactivity”.
As to “QVKLVESGGGLVMAGGSLRLSCAASGRTFWIYAMGRYRQAPGKERELVAAISQSSSITYYADSVKRRFTFSRDNAKNTVYLQMNSLKPEDTEGYYCNSDVLRYQGSWLEYWGQGTQVTVSS”, the “polyreactivity (PSR sort gate)” value is given as “low polyreactivity”.
For “QVKLVESGGGLVQAGCSLRISCAASGITFKNYAMGWYRQAHGKERELVAAIRSIAGRTNYADSVKGRFTISRDYANNTVYLKMNSLKPEDTAVYYFTAANRGQRSDYRGYYYWGQGTQVTVSS”, the “polyreactivity (PSR sort gate)” value is recorded as “high polyreactivity”.
Turning to “QVKLVESGGGLVQAGCSLRLSCAASGRIYGGYTMGRYRPAPGKERELVAAITGSGGRTYFADSVKGRFTISRDNAKNTVYLHMNILTPEDTAVYYCNTVYPYRYYWGHGTQVTVSS”, the “polyreactivity (PSR sort gate)” value is given as “high polyreactivity”.
As for “QVKLVESGGGLVQAGGRLRLSCDAYGIILVGYDMGWYRPAPGKERELVATISSGSSTYYEDSVKGRFTISRDNAKNTVYLQMNSLKPEDTAVYYCNADHAGPYWRFHDDDYWGQGTKVTVSS”, the “polyreactivity (PSR sort gate)” value was “low polyreactivity”.
To “QVKLVESGGGLVQAGGSLRLSCAASGFIFGDNAMGWYRQAPGKVREFVAAINSGSRTSYADSVKGRFTISRDNAKNTVYLQMNSLKPEDTAVYYCAAESVSSGDYASRYDYWGQGTQVTVSS” belongs “low polyreactivity”.
To “QVKLVESGGGLVQAGGSLRLSCAASGFIFLRYGMGWYRQAPGKERELVASIDSTGGSTYADSVKGRFTISRDNAKNTVYLKMNSLKPVDTAVYFCAAAFYIVSERDYCGQGTQVTVSS” belongs “low polyreactivity”.
In the case of “QVKLVESGGGLVQAGGSLRLSCAASGFTFNRYAMGWYRQAPGKERELVAAISWSGGSTYYADSVKGRFTISRDNAKNTVYLQMNSLKPEDTAVYYCAAATAYYRYRGGYDYWGQGTQVTVSS”, the “polyreactivity (PSR sort gate)” value is “high polyreactivity”.
For “QVKLVESGGGLVQAGGSLRLSCAASGFTFSYYAMGWYRQAPGKERELVAAISYSGSATYYADSVKVRFTISRDNAKNTVYLQLNSLIPEDTAVYYCNARGATRGLTAYTYDSWGQGTQVTVSS” the value was “high polyreactivity”.
To “QVKLVESGGGLVQAGGSLRLSCAASGIIFEVYAMGWYRQAPGKERELVAAITLSSGGITYYADSVKGRFTISRDYAKNTVYLQMNSLKPEDTAVYYCAAQHDNFSGPFEYWGQGTQVTVSS” belongs “low polyreactivity”; to “QVKLVESGGGLVQAGGSLRLSCAASGITFYINAMGWYRQAPGKERELVAVIDSRGSSTFYADSVKGRFTISRDNAKNTVYLQMNSLKPEDTAVYYCAVEGYPGRYRDPGDLYYYWGQGTQVTLSS”, “low polyreactivity”.
As to “QVKLVESGGGLVQAGGSLRLSCAASGRIFDRYAMGWYRQAPGKERELVAAITSRADRTYYADSVKGRFTISRDIAKNTVYLQMNSLKPEDTAVYYCNRRRRHYSYYSTLSYDYWGQGTQVTVSS”, the “polyreactivity (PSR sort gate)” value is on record as “high polyreactivity”.
Turning to “QVKLVESGGGLVQAGGSLRLSCAASGRIFNWYAMGWYRQAPGKERELVAAITSGGSTNYADSVKGRFTISRDNAKNTVYLQMNSLKPEDTAVYFCNARGRFRGYRYYYWGQGTQVTVSS”, the “polyreactivity (PSR sort gate)” value is “high polyreactivity”.
Turning to “QVKLVESGGGLVQAGGSLRLSCAASGRIFYYYAMGWYRPAPGKERELVAGITTGGGTNYADSVKGRFTISRDNAKNTVYLQMNSLKPEDTAVYYCATGTEGYSDDYGYWGQGTQVTVSS”, the “polyreactivity (PSR sort gate)” value is “low polyreactivity”.
Take “QVKLVESGGGLVQAGGSLRLSCAASGRISFYYAMGWYRQAPGKERELVATISSSGGSTHYADSVKGRFTISRDNAKNTVYLQMNSLKPEDTAVYYCARDDSERIWLEQSGYWGQGTQVTVSS”: the “polyreactivity (PSR sort gate)” value is “low polyreactivity”.
For “QVKLVESGGGLVQAGGSLRLSCAASGRTFIYYAMGWYRQAPGKERELVAGITYSVGSTYYADSVKGRFTISRDNAKNTVYLQMNSLKPEVTAVYYCAAKPVGTYSRPHDYWGQGTQVTVSS” the value was “low polyreactivity”.
Turning to “QVKLVESGGGLVQAGGSLRLSCAASGSIFQGYAMGWYRQAPGKERELVAAISGRGGSTYYADSVKGRFTISRDNAKNTVYLQMNSLKPEDTAVYYCNAPRYYWISFARWPASYYYWGQGTQVTVSS”, the “polyreactivity (PSR sort gate)” value is on record as “high polyreactivity”.
With “QVKLVESGGGLVQAGGSLRLSCAASGSIFTYTIGWYRQAPGKESELVAVISRSGGRTYYADSVKGRFTISRDNAKNTVYLQMNSLKPEDTAVYYCAAEYYVDYYRTSRSFTRWRYEYWGQGTQVTVSS”, the “polyreactivity (PSR sort gate)” value is “high polyreactivity”.
With “QVKLVESGGGLVQAGGSLRLSCAASGSSFTNYAMGWYRQEPRKERELVAAITSVGSTYYADSVKGRFTISRDNAKNTVYLQMNSLKPEDTAVYYCNVVYRDQYNYWGQGTQVTVSS”, the “polyreactivity (PSR sort gate)” value was “low polyreactivity”.
On to “QVKLVESGGGLVQAGGSLRLSCAASGSTFHLNAMGWYRPAPGKDRELVAANSWDGSSTSYADSVKGRFTISRDNAKNTVYLQMNSLKPEDTAVYFCAADDTLDRVPTTFIDGSPGYGYWGQGTQVTVSS”, for which the “polyreactivity (PSR sort gate)” value is recorded as “low polyreactivity”.
With “QVKLVESGGGLVQAGGSLRLSCAASGSTFSSYAMGWYRQAPGKERELVAAISSSGGTSTYADSVKGRFTISRDNAKNTVYLQMNSLKPEDTAVYYCAARQDRLLRDYRHDYWGQGTQVTVSS”, the “polyreactivity (PSR sort gate)” value is recorded as “high polyreactivity”.
Consider “QVKLVESGGGLVQAGGSLRLSCAASGSTINLYDMGSYIQAPGKERELVADISRGGSTNYADSVKGRFTITRDNAKNTVYLQMNSLIPEDTAVYYCAAFYFTYDFWTYSFAEYDYWGQGTQVTVSS”, for which the “polyreactivity (PSR sort gate)” value is “high polyreactivity”.
On to “QVKLVESGGGLVQAGGSLRLSCAASGSTLRYYGMGWYRQAPGKERELVAAISSGGITNYADSVKGRFTISRDNAKNTVYLQMNSLKPEDTAVYYCAAYYTYTWFGYWGQGTQVTVSS”, for which the “polyreactivity (PSR sort gate)” value was “low polyreactivity”.
For “QVKLVESGGGLVQAGGSLRLSCAASGSTLYQYTMGWYRQAPGKERELVAGISRRGGSTYYAYSVKGRFTISRDNAKNTVYLQMNSLKPEDTAVYYCAKRPHYIAWYGYNGDYWGQGTQVTVSS” the value was “high polyreactivity”.
To “QVKLVESGGGLVQAGGSLRLSCAASGSTMSVNAMGWYRQAPGKERELVAAIDFDGGDTYYADSVKGRFTISRDNAKNTVYFQMNSLKPEDTAVYYCAADIGGQYDYLADDYWGQGTQVTVSS” belongs “low polyreactivity”.
As for “QVKLVESGGGLVQAGGSLRLSCADSGFTFSSNGMCWYRPAPGKETELVAAITRRGGSTYYADSVKGRFTISRDNAKNTVYLQMNSLKPEDTAVYYCAKQLWDPKYDYWGQGTQVTVSS”, the “polyreactivity (PSR sort gate)” value is listed as “high polyreactivity”.
